Measurements: patent publication US20080292639A1 (Amgen, published 2008)
Values joined by “and” are separate entries in the source; they are usually repeats but may differ in a detail not shown here. Equal entries are not always repeated.

How the values were obtained:
human Aβ40 fibrils [1] = biological target: T1, human Aβ40 fibrils (human, UniProt P05067 672-711); experiment: BIAcore, antibody injected over immobilized Aβ fibrils
T1 construct: domain: Aβ40; Aggregated (fibrillar) form; also called Fibrillar Aβ40; Aβ40 aggregate
T1 sequence (P05067 672-711 limits assumed): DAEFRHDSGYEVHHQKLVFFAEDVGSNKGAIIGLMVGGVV
Method: (§1) Preparation of BIacore Chip Surfaces: Immobilization of Proteins to a Biacore sensor chip (CM5) was performed according to manufacturer's instructions. Briefly, carboxyl groups on the sensor chip surfaces were activated by injecting 60 μL of a mixture containing 0.2 M N-ethyl-N′-(dimethylaminopropyl)carbodiimide (EDC) and 0.05 M N-hydroxysuccinimide (NHS). Specific surfaces were obtained by injecting rProtein G (Pierce), goat anti-mouse Fc (Jackson Immuno Research Lab) or Aβ aggregates diluted in 10 mM acetate, pH 4.0 at concentrations between 5 and 20 μg/mL. Excess reactive groups on the surfaces were deactivated by injecting 60 μL of 1 M ethanolamine. Final immobilized levels were about 10000 resonance units (RU) for the Protein G and anti-mouse Fc surfaces, and 400 RU for the Aβ aggregates surfaces. A blank, mock-coupled reference surface was also prepared on the sensor chips for background subtraction.
(§2) Kinetic analysis of antibodies binding to immobilized Aβ aggregates: Antibodies were diluted in PBS+0.005% P-20+0.1 mg/mL BSA from 100 nM to 0.2 nM. The samples at each concentration were injected over the immobilized Aβ aggregate surfaces, as well as over a blank surface for background subtraction. After a 15-minute dissociation, the surface was regenerated by injecting 8 mM glycine, pH 3.0, and 1 M NaCl for 30 seconds.
(§3) The kinetic analysis assay as described above was repeated using various humanized versions of anti-Aβ antibodies (2.1 chimera, 2.1 B, 2.1 C, 2.1 D, 2.1 E, 2.1 F, 2.1 G, 2.1 E.K5, 2.1E.K5R, 2.1 G.K5, 2.1 G.K5R, 2.1 I.K5R and 2.1 L).

human Aβ42 fibrils [2] = biological target: T2, human Aβ42 fibrils (human, UniProt P05067 672-713); experiment: as above
T2 construct: domain: Aβ42; Aggregated (fibrillar) form; also called Fibrillar Aβ42; Aβ42 aggregate
T2 sequence (P05067 672-713 limits assumed): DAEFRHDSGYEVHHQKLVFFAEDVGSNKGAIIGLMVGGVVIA
Method: as §1, §2, §3

[3] = biological target: native amyloid plaques in unfixed brain sections of Tg2576 APP transgenic mice (human, UniProt P05067 672-713, limits assumed); experiment: cell-based or functional assay
native amyloid plaques in unfixed brain sections of Tg2576 APP transgenic mice, sequence (P05067 672-713 limits assumed): as above

[4] = biological target: amyloid plaques in unfixed brain sections of a human AD patient (human, UniProt P05067 672-713); experiment: cell-based or functional assay
amyloid plaques in unfixed brain sections of a human AD patient, sequence (P05067 672-713): as the sequence (P05067 672-713 limits assumed) above

human Aβ40 monomer = biological target: T3, human Aβ40 monomer (human, UniProt P05067 672-711); experiment: ELISA on plate-coated monomer, time-resolved europium fluorescence
T3 construct: domain: Aβ40; Monomeric form
T3 sequence (P05067 672-711 limits assumed): as the sequence (P05067 672-711 limits assumed) above
Method: (§4) The same techniques were used for the coating of the microtiter plate for monomer ELISA. The fibrils Aβ monomer were diluted to 2.5 μg/ml in Coating buffer and mixed thoroughly. The solution was aliquoted into the wells of a microtiter plate [Immulon-2; VWR; Cat.#62404-972] at 100 μl per well. The plate was sealed and incubated overnight at 4° C. The plate was washed 5-10× to remove Aβ coating solution prior to starting the assay.
(§5) The wells were blocked with 200 μl of blocking solution and incubated for ≧1 hour at room temperature (RT) with shaking. The blocking solution was flicked out and gently dried on a paper towel. 100 μl of primary antibody diluted in PBS containing 10% blocking solution was added to each well and the plate was incubated at RT for 1 hour with shaking. The plate was washed with 5-10× in TBS, pH 7.5+0.05% Tween 20. 100 μl of secondary antibodies (each diluted 1-2,000-fold in PBS) was added to each well and the plate was incubate at RT for 1 hour with shaking. The plate was washed with 5-10× in TBS, pH 7.5+0.05% Tween 20. 100 μl Streptavidin-Europium reagent (1-1,000-fold dilution) was added and the plated was incubated at RT for 45 minutes with shaking. The plate was washed 5-10× in TBS, pH 7.5+0.05% Tween 20. 120 μl Enhance Solution was added and the plate was incubated at RT for 15-30 minutes with shaking. The plate was read on a Victor TRF plate reader (Europium program).

human Aβ42 monomer = biological target: T4, human Aβ42 monomer (human, UniProt P05067 672-713); experiment: as above
T4 construct: domain: Aβ42; Monomeric form
T4 sequence (P05067 672-713 limits assumed): as the sequence (P05067 672-713 limits assumed) above
Method: as §4, §5

human Aβ40 fibrils [5] = biological target: T1, human Aβ40 fibrils; experiment: ELISA on plate-dried fibrils, time-resolved europium fluorescence
Method: (§6) The fibrils (Aβ or collagen) were diluted to 10 μg/ml in water and mixed thoroughly. The solution was aliquoted into the wells of a microtiter plate (Immulon-2; VWR; Cat # 62404-972) at 50 μl per well (resulting in 0.5 μg fibrils/well final). The plate was dried overnight by being placed uncovered in a 37° C. incubator.
as §5

human Aβ42 fibrils [6] = biological target: T2, human Aβ42 fibrils; experiment: as above
Method: as §6, §5

B1: 2.1 D (antibody, human IgG1, kappa)
heavy: not shown
light: DVVMTQSPLSLPVTLGQPASISCRSSQSIVHSNGNTYLEWYLQRPGQSPQLLIYKVSNRFSGVPDRFSGSGSGTDFTLKISRVEAEDVGVYYCFQGSHVPLTFGGGTKVEIKRTVAAPSVFIFPPSDEQLKSGTASVVCLLNNFYPREAKVQWKVDNALQSGNSQESVTEQDSKDSTYSLSSTLTLSKADYEKHKVYACEVTHQGLSSPVTKSFNRGEC
notes: Humanized IgG; also called 2.1 D (K5R)
Human Aβ40 fibrils [1]
  koff: 0.00012 s⁻¹
Human Aβ42 fibrils [2]
  koff: 5.5e-05 s⁻¹

B2: 2.1 L (antibody, human IgG1, kappa)
heavy: not shown
light: DVLMTQSPLSLPVTLGQPASISCRSSQSIVHSNGNTYLEWYLQRPGQSPKLLIYKVSNRFSGVPDRFSGSGSGTDFTLKISRVEAEDVGVYYCFQGSHVPLTFGAGTKLEIKRTVAAPSVFIFPPSDEQLKSGTASVVCLLNNFYPREAKVQWKVDNALQSGNSQESVTEQDSKDSTYSLSSTLTLSKADYEKHKVYACEVTHQGLSSPVTKSFNRGEC
notes: Humanized IgG
Human Aβ40 fibrils [1]
  koff: < 5e-05 s⁻¹
Human Aβ42 fibrils [2]
  koff: < 5e-05 s⁻¹
[3]
  EC50 (µg/ml), ex vivo phagocytosis: 0.82 µg/mL and 0.73 µg/mL

B3: 2.1 F (antibody, human IgG1, kappa)
heavy: not shown
light: DIVMTQSPLSLPVTPGEPASISCRSSQSIVHSNGNTYLEWYLQRPGQSPQLLIYKVSNRFSGVPDRFSGSGSGTDFTLKISRVEAEDVGVYYCFQGSHVPLTFGGGTKVEIKRTVAAPSVFIFPPSDEQLKSGTASVVCLLNNFYPREAKVQWKVDNALQSGNSQESVTEQDSKDSTYSLSSTLTLSKADYEKHKVYACEVTHQGLSSPVTKSFNRGEC
notes: Humanized IgG; also called 2.1 F (K5R)
Human Aβ40 fibrils [1]
  koff: 0.00015 s⁻¹
Human Aβ42 fibrils [2]
  koff: 0.00012 s⁻¹

B4: 2.1 E (antibody, human IgG1, kappa)
heavy: not shown
light: DVVMTQSPLSLPVTLGQPASISCRSSQSIVHSNGNTYLEWYLQKPGQSPRLLIYKVSNRFSGVPDRFSGSGSGTDFTLKISRVEAEDVGVYYCFQGSHVPLTFGGGTKVEIKRTVAAPSVFIFPPSDEQLKSGTASVVCLLNNFYPREAKVQWKVDNALQSGNSQESVTEQDSKDSTYSLSSTLTLSKADYEKHKVYACEVTHQGLSSPVTKSFNRGEC
notes: Humanized IgG; also called 2.1 E (K5R); 2.1E.K5R
Human Aβ40 fibrils [1]
  koff: 0.00011 s⁻¹ and < 5e-05 s⁻¹
Human Aβ42 fibrils [2]
  koff: < 5e-05 s⁻¹
[3]
  EC50 (µg/ml), ex vivo phagocytosis: 2.23 µg/mL

B5: 2.1 K (antibody, human IgG1, kappa, V domains shown)
VH: QVTLKESGPALVKPTQTLTLTCTFSGFSLRTSGMGVGWIRQPPGKGLEWLAHIWWDDDKSYNPSLKSQLTISKDTSKNQVVLTMTNMDPVDTATYYCARRNYYYDDYFAYWGQGTTLTVSS
VL: DVLMTQSPLSLPVTLGQPASISCRSSQSIVHSNGNTYLEWYLQRPGQSPKLLIYKVSNRFSGVPDRFSGSGSGTDFTLKISRVEAEDVGVYYCFQGSHVPLTFGAGTKLEIKR
[4]
  EC50 of phagocytosis by IC-21 cells on human AD brain sections: 0.76 µg/mL
[3]
  EC50 (µg/ml), ex vivo phagocytosis: 0.84 µg/mL

B6: 2.1 G (also described as 2.1 GK5R) (antibody, human IgG1, kappa)
heavy: not shown
light: DIVMTQSPLSLPVTPGEPASISCRSSQSIVHSNGNTYLEWYLQKPGQSPRLLIYKVSNRFSGVPDRFSGSGSGTDFTLKISRVEAEDVGVYYCFQGSHVPLTFGGGTKVEIKRTVAAPSVFIFPPSDEQLKSGTASVVCLLNNFYPREAKVQWKVDNALQSGNSQESVTEQDSKDSTYSLSSTLTLSKADYEKHKVYACEVTHQGLSSPVTKSFNRGEC
notes: Humanized IgG
Human Aβ40 fibrils [1]
  koff: 0.00011 s⁻¹ and < 5e-05 s⁻¹
Human Aβ42 fibrils [2]
  koff: < 5e-05 s⁻¹
[3]
  EC50 (µg/ml), ex vivo phagocytosis: 0.94 µg/mL

B7: 2.1 G K5 (antibody, human IgG1, kappa)
heavy: not shown
light: DIVMTQSPLSLPVTPGEPASISCRSSQSIVHSNGNTYLEWYLQKPGQSPRLLIYKVSNRFSGVPDRFSGSGSGTDFTLKISRVEAEDVGVYYCFQGSHVPLTFGGGTKVEIKRTVAAPSVFIFPPSDEQLKSGTASVVCLLNNFYPREAKVQWKVDNALQSGNSQESVTEQDSKDSTYSLSSTLTLSKADYEKHKVYACEVTHQGLSSPVTKSFNRGEC
notes: Humanized IgG
Human Aβ40 fibrils [1]
  koff: < 5e-05 s⁻¹
Human Aβ42 fibrils [2]
  koff: < 5e-05 s⁻¹
[3]
  EC50 (µg/ml), ex vivo phagocytosis: 1.78 µg/mL

B8: 2.1 E K5 (antibody)
heavy: not shown
light: DVVMTQSPLSLPVTLGQPASISCRSSQSIVHSNGNTYLEWYLQKPGQSPRLLIYKVSNRFSGVPDRFSGSGSGTDFTLKISRVEAEDVGVYYCFQGSHVPLTFGGGTKVEIKRTVAAPSVFIFPPSDEQLKSGTASVVCLLNNFYPREAKVQWKVDNALQSGNSQESVTEQDSKDSTYSLSSTLTLSKADYEKHKVYACEVTHQGLSSPVTKSFNRGEC
notes: Humanized IgG
Human Aβ40 fibrils [1]
  koff: < 5e-05 s⁻¹
Human Aβ42 fibrils [2]
  koff: < 5e-05 s⁻¹
[3]
  EC50 (µg/ml), ex vivo phagocytosis: 3.94 µg/mL

B9: 2.1 I (also described as 2.1 I K5R) (antibody, human IgG1, kappa, V domains shown)
VH: QVTLRESGPALVKPTQTLTLTCTFSGFSLRTSGMGVGWIRQPPGKALEWLAHIWWDDDKSYNPSLKSQLTISKDTSKNQVVLTMTNMDPVDTATYYCARRNYYYDDYFAYWGQGTLVTVSS
VL: DIVMTQSPLSLPVTPGEPASISCRSSQSIVHSNGNTYLEWYLQKPGQSPQLLIYKVSNRFSGVPDRFSGSGSGTDFTLKISRVEAEDVGVYYCFQGSHVPLTFGGGTKVEIKR
notes: Humanized IgG
Human Aβ40 fibrils [1]
  koff: < 5e-05 s⁻¹
Human Aβ42 fibrils [2]
  koff: < 5e-05 s⁻¹
[3]
  EC50 (µg/ml), ex vivo phagocytosis: 0.69 µg/mL

B10: 2.1 J (antibody, human IgG1, kappa, V domains shown)
VH: QVTLKESGPALVKPTQTLTLTCTFSGFSLRTSGMGVGWIRQPPGKALEWLAHIWWDDDKSYNPSLKSQLTISKDTSKNQVVLTMTNMDPVDTATYYCARRNYYYDDYFAYWGQGTLVTVSS
VL: DVVMTQSPLSLPVTLGQPASISCRSSQSIVHSNGNTYLEWFQQRPGQSPRRLIYKVSNRFSGVPDRFSGSGSGTDFTLKISRVEAEDVGVYYCFQGSHVPLTFGQGTKLEIKR
[3]
  EC50 (µg/ml), ex vivo phagocytosis: 1.22 µg/mL

B11: 2.1 C (antibody, human IgG1, kappa)
heavy: not shown
light: DVVMTQSPLSLPVTLGQPASISCRSSQSIVHSNGNTYLEWYLQRPGQSPQLLIYKVSNRFSGVPDRFSGSGSGTDFTLKISRVEAEDVGVYYCFQGSHVPLTFGQGTKLEIKRTVAAPSVFIFPPSDEQLKSGTASVVCLLNNFYPREAKVQWKVDNALQSGNSQESVTEQDSKDSTYSLSSTLTLSKADYEKHKVYACEVTHQGLSSPVTKSFNRGEC
notes: Humanized IgG; also called 2.1 C (K5R)
Human Aβ40 fibrils [1]
  koff: 0.00015 s⁻¹
Human Aβ42 fibrils [2]
  koff: < 5e-05 s⁻¹

B12: 2.1 B (antibody, human IgG1, kappa, V domains shown)
VH: QVTLRESGPALVKPTQTLTLTCTFSGFSLRTSGMGVGWIRQPPGKALEWLAHIWWDDDKSYNPSLKSQLTISKDTSKNQVVLTMTNMDPVDTATYYCARRNYYYDDYFAYWGQGTLVTVSS
VL: DVVMTQSPLSLPVTLGQPASISCRSSQSIVHSNGNTYLEWFVQRPGQSPRVLIYKVSNRFSGVPDRFSGSGSGTDFTLKISRVEAEDVGVYYCFQGSHVPLTFGGGTKLEIKR
notes: Humanized IgG; also called 2.1 B (K5R)
Human Aβ40 fibrils [1]
  koff: 0.00024 s⁻¹
Human Aβ42 fibrils [2]
  koff: 0.00019 s⁻¹

B13: 2.1 chimera (murine/human chimeric form of antibody 2.1) (antibody, V domains shown)
VH: QVTLKESGPGILKPSQTLSLTCSFSGFSLRTSGMGVGWIRQPSGKGLEWLAHIWWDDDKSYNPSLKSQLTISKDTSRNQVFLKITSVDTADTATYYCARRNYYYDDYFAYWGQGTTLTVSS
VL: DVLMTQTPLSLPVSLGDQASISCRSSQSIVHSNGNTYLEWYLQKPGQSPKLLIYKVSNRFSGVPDRFSGSGSGTDFTLKISRVEAEDLGVYYCFQGSHVPLTFGAGTKLELK
notes: also called chimera 2.1; (CHO) 2.1 Chimera (control)
Human Aβ40 monomer
  EC50: 0.031 nM
Human Aβ42 monomer
  EC50: 0.034 nM
Human Aβ40 fibrils [1]
  koff: 0.00012 s⁻¹ and 5.9e-05 s⁻¹
Human Aβ42 fibrils [2]
  koff: 6.9e-05 s⁻¹ and 6.3e-05 s⁻¹
[3]
  EC50 (µg/ml), ex vivo phagocytosis: 0.8 µg/mL
  EC50 (µg/ml), ex vivo phagocytosis; 2.1 Chimera (293): 1.08 µg/mL
  EC50 (µg/ml), ex vivo phagocytosis; 2.1 Chimera (CHO): 0.7 µg/mL
Human Aβ40 fibrils [5]
  EC50: 0.06 nM
Human Aβ42 fibrils [6]
  EC50: 0.072 nM
